B1: mouse PTPδ Ig1-Fn1 (residues 28-418), splice variant meA9B+ [modified: N-linked glycans] [mouse] / mouse Slitrk2 LRR1 (first leucine-rich repeat of Slit and Trk-like family member 2), wild type [modified: N-linked glycans; N-linked … (parent complex)
chain 1: ETPPRFTRTPVDQTGVSGGVASFICQATGDPRPKIVWNKKGKKVSNQRFEVIEFDDGSGSVLRIQPLRTPRDEAIYECVASNNVGEISVSTRLTVLREDQIPRGFPTIDMGPQLKVVERTRTATMLCAASGNPDPEITWFKDFLPVDTSNNNGRIKQLRSESIGGTPIRGALQIEQSEESDQGKYECVATNSAGTRYSAPANLYVRELREVRRVPPRFSIPPTNHEIMPGGSVNITCVAVGSPMPYVKWMLGAEDLTPEDDMPIGRNVLELNDVRQSANYTCVAMSTLGVIEAIAQITVKALPKPPGTPVVTESTATSITLTWDSGNPEPVSYYIIQHKPKNSEEPYKEIDGIATTRYSVAGLSPYSDYEFRVVAVNNIGRGPASEPVLTQK
chain 2: MLSGVWFLSVLTVAGILQTESRKTAKDICKIRCLCEEKENVLNINCENKGFTTVSLLQPPQYRIYQLFLNGNLLTRLYPNEFVNYSNAVTLHLGNNGLQEIRPGAFSGLKTLKRLHLNNNKLEVLREDTFLGLESLEYLQADYNYISTIEAGAFSKLNKLKVLILNDNLLLSLPSNVFRFVLLTHLDLRGNRLKVMPFAGVLEHIGGIMEIQLEENPWNCTCDLLPLKAWLDTITVFVGEIVCETPFRLHGKDVTQLTRQDLCPRK

Variants of: B1
Assay: SPR equilibrium analysis; point at 4 µM PTPδ Ig1-Fn1 (highest concentration); parent: 600; read off a plot

Row | Variant | response
1 | chain 2 D187A | ~120 Response unit
2 | chain 2 F247A, chain 2 H250A | ~460 Response unit

Other lines, results leading:

Row | response | Variant
3 | ~490 Response unit | chain 2 R114A
4 | ~210 Response unit | chain 2 E215A
5 | ~100 Response unit | chain 2 D167A

Reference: publication PMC4437028 (2015)
